How the values were obtained:
[1] = target: T1, FtsL, full-length (Escherichia coli divisome transmembrane protein) (Escherichia coli, UniProt P0AEN4 1-121); experiment: pull-down
T1 sequence (looked up): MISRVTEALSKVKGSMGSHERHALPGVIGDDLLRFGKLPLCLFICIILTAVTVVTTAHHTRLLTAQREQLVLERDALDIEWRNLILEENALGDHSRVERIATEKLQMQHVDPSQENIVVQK

[2] = target: FtsQ, full-length (Escherichia coli divisome transmembrane protein) (Escherichia coli, UniProt P06136 1-276); experiment: pull-down
Chain of FtsQ, full-length (Escherichia coli divisome transmembrane protein) (P06136 whole entry): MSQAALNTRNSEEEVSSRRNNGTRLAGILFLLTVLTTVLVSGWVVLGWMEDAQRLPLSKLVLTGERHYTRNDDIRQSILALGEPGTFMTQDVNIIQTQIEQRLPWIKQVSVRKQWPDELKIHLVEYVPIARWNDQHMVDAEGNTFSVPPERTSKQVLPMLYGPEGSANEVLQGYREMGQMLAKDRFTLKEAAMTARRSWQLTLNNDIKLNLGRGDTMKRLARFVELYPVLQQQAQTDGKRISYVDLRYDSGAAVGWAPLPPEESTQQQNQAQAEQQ

B1: FtsB, full-length, His-tagged (Escherichia coli divisome transmembrane protein) (natural protein, UniProt P0A6S5 1-103, looked up)
chain: MGKLTLLLLAILVWLQYSLWFGKNGIHDYTRVNDDVAAQQATNAKLKARNDQLFAEIDDLNGGQEALEERARNELSMTRPGETFYRLVPDASKRAQSAGQNNR
B1: binds [1]; binds [2].
